Our source for the other: log2 fold change (Z1 1-209(WT)/Z1 1-209(MUT)) values is PMC10720265.

Holding throughout (test): MYC IP followed by mass spectrometry (IP-MS)
Conditions in all cases: three biological replicates; HeLa cell lysates; signals normalized to bait protein levels; read off a plot

Assay [1] concerns the target ARS2, endogenous in HeLa cells.
The target of assay [2] is NCBP2, CBC component, endogenous in HeLa cells (UniProt P52298).
Assay [3] deals with NCBP1, CBC component, endogenous in HeLa cells (UniProt Q09161).
UniProt Q09161, sequence (Q09161 whole entry): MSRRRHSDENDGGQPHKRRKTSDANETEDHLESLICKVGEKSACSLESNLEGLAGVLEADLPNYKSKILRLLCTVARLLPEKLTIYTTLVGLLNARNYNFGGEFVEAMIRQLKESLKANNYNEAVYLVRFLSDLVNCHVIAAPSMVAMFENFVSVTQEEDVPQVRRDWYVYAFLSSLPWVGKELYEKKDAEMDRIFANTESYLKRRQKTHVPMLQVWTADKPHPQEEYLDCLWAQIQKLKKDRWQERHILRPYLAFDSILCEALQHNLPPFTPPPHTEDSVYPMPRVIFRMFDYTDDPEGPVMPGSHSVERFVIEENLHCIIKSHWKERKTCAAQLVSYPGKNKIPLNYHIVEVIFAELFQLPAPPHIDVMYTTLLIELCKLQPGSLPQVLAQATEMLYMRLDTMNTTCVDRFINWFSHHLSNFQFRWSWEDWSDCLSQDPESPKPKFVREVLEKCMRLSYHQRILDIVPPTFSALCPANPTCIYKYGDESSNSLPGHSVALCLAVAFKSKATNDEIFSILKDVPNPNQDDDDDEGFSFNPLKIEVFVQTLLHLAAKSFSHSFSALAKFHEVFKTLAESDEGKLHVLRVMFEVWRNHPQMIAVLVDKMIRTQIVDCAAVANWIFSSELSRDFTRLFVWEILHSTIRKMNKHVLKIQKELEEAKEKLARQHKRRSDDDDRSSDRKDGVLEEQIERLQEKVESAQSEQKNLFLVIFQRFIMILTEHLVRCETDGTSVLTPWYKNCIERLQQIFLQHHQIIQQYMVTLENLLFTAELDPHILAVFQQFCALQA

UniProt P52298, sequence (P52298 whole entry): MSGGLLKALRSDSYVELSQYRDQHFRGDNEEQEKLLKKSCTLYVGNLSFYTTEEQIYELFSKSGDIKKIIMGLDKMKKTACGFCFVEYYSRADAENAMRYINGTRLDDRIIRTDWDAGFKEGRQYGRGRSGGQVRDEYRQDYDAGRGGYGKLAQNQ

For the substance “Z1^1-209(WT), MYC-tagged N-terminal fragment of human ZFC3H1 (from UniProt O60293) … -> … (E->A; E->A; D->A; E->A; residue numbers not printed)”, the figures for the other: log2 fold change (Z1 1-209(WT)/Z1 1-209(MUT)) in assay [1], in assay [2] and in assay [3] were 6.9 log2, 1.8 log2 and 2.1 log2, respectively.
